These results are taken from publication PMC6773851, “Identification of protein-protein and ribonucleoprotein complexes containing Hfq” (Scientific Reports, 2019).

In series [1] the test system is HfqH6 (Ec-HfqHis6) (Escherichia coli). The experiment in a line: MST. As to conditions: Hill coefficient 4.0; concentration calculated with 1 kb average length; MST: 50 mM Tris-HCl pH 7.6, 50 mM NH4Cl, 1 mM EDTA, 0.1% Triton X100, 5% glycerol; room temperature; 100 nM labelled HfqH6. Total E. coli RNA (EC50 3.2e-7 M …).
In series [2] the target is T1, Ec-HfqHis6 (purified) (E. coli, UniProt P0A6X3 1-102).
T1 construct: In MST labelled with a fluorescent dye (Protein Labeling Kit RED-NHS); also called HfqH6; purified Hfq
The experiment in a line: MST; as the MST without RNA, but in the presence of E. coli total RNA; apparent affinity. Particulars: both partners purified.

Series [3] concerns the target T1, Ec-HfqHis6 (purified). The experiment in a line: MST; one partner labelled (RED-NHS) and constant (HfqH6 100 nM), the other titrated; standard buffer (50 mM Tris-HCl pH7.6, 50 mM NH4Cl, 1 mM EDTA, 0.1% Triton X100, 5% glycerol); room temperature; Hill model; without RNA. Particulars: both partners purified.

For orientation: EC50 means the concentration at which the effect is half-maximal. A higher EC50 goes with weaker potency.

T1 sequence (P0A6X3 whole entry): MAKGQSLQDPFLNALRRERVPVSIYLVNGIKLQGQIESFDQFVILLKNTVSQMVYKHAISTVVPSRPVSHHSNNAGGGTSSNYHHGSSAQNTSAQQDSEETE

Regarding poly(A), the K half in series [1] was 600 nM.

B1: Poly(A)polymerase, PAP (purified) (natural protein, E. coli, UniProt P0ABF1 11-465, looked up)
chain: KVLSREESEAEQAVARPQVTVIPREQHAISRKDISENALKVMYRLNKAGYEAWLVGGGVRDLLLGKKPKDFDVTTNATPEQVRKLFRNCRLVGRRFRLAHVMFGPEIIEVATFRGHHEGNVSDRTTSQRGQNGMLLRDNIFGSIEEDAQRRDFTINSLYYSVADFTVRDYVGGMKDLKDGVIRLIGNPETRYREDPVRMLRAVRFAAKLGMRISPETAEPIPRLATLLNDIPPARLFEESLKLLQAGYGYETYKLLCEYHLFQPLFPTITRYFTENGDSPMERIIEQVLKNTDTRIHNDMRVNPAFLFAAMFWYPLLETAQKIAQESGLTYHDAFALAMNDVLDEACRSLAIPKRLTTLTRDIWQLQLRMSRRQGKRAWKLLEHPKFRAAYDLLALRAEVERNAELQRLVKWWGEFQVSAPPDQKGMLNELDEEPSPRRRTRRPRKRAPRREGTA
notes: Poly(A) polymerase I, E. coli
With B1, the “fold decrease of the apparent affinity in the presence of total RNA” value with Ec-HfqHis6 (purified) [2] is around 10 fold. In the series with Ec-HfqHis6 (purified) [3], the concentration giving a half-maximal response (EC50) was below 10 µM.
